Data on one molecule can be found in patent publication US20030003502A1 (published 2003).

In the test the target is T1, PhFc-Cε3/Cε41-222 (human, UniProt P01854 211-427, N-linked carbohydrate attached at N394 (NAG/MAN residues 694-699 in Table 1)).
T1 construct: Fc fragment of human IgE (Cε3 and Cε4 domains); It is a dimer of two identical chains with an interchain disulfide near residue 329; Produced in Trichoplusia ni (Hi-5) insect cells; also called human IgE-Fc Cε3/Cε4 domains; IgE-Fc
The test can be described thus: complex formation and co-crystallization, crystal form I. Here is the method: The structure was determined by molecular replacement techniques as described in Methods. Manual model building was done with the program O¹⁸ and refinement carried out with CNS¹⁹. Current refinement statistics for the complex are shown in Table 3, with an overall R-free of 29.3% and R-cryst of 27.0% to 3.25 Å.
Human IgE-Fc Cε3/Cε4 domains and a carbohydrate mutant of the FcεRIα¹¹ were expressed in insect cells essentially as described for IgE-Fc Cε3/Cε4 in 60/189,403. Complexes of wt-Fc-Cε3/Cε4 and wt-FcεRIα produced only poorly diffracting crystals. Since the receptor is heavily glycosylated (˜33% carbohydrate by weight), and the carbohydrate sites are dispersed on the receptor surface, a subset of these attachment sites was removed to improve the protein crystallization. A previously-described carbohydrate mutant of the receptor¹⁷ lacking three of the seven wild type carbohydrate sites (residues 74, 135, and 140) located on both D1 and D2 in the receptor structure. The triple receptor mutant, FcεRIαΔ4-6 was subcloned into the pvl1392 baculovirus transfer vector and recombinant virus produced. The mutant receptor was active, expressed well and was purified by affinity chromatography similarly to the wt protein. […]

T1 sequence (P01854 other isoform, or with tags, fused parts or gaps limits assumed): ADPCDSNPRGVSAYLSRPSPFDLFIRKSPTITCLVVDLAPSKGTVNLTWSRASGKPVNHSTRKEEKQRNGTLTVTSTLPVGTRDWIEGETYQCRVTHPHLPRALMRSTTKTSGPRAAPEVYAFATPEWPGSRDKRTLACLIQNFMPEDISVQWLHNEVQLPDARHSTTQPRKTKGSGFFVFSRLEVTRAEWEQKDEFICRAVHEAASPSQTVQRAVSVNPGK

B1: PhFcεRIα1-176 (receptor)
chain: VPQKPKVSLNPPWNRIFKGENVTLTCNGNNFFEVSSTKWFHNGSLSEETNSSLNIVNAKFEDSGEYKCQHQQVNESEPVYLEVFSDWLLLQASAEVVMEGQPLFLRCHGWRNWDVYKVIYYKDGEALKYWYENHNISITNATVEDSGTYYCTGKVWQLDYESEPLNITVIKAPREK
modifications: N-linked carbohydrate (seven native attachment sites; about 33% carbohydrate by weight)
notes: also called hFcεRIα1-176 protein; wild type (wt) FcεRIα
Consider B1, for which the binding result was “binds”.
